Changes are numbered by the printed parent chain. Names and notes keep the numbering of the source.
B1: recombinant brome mosaic virus (BMV) capsid protein (natural protein)
chain: MSTSGTGKMTRAQRRAAARRNRWTARVQPVIVEPLAAGQGKAIKAIAGYSISKWEASSDAITAKATNAMSITLPHELSSEKNKELKVGRVLLWLGLLPSVAGRIKACVAEKQAQAEAAFQVALAVADSSKEVVAAMYTDAFRGATLGDLLNLQIYLYASEAVPAKAVVVHLEVEHVRPTFDDFFTPVYR
notes: brome mosaic virus capsid (coat) protein; In the MST assay one copy was labelled with Monolith NT Protein Labeling Kit RED-NHS 647 and titrated with unlabelled rCP; also called rCP; CP; source: E. coli Rosetta 2(DE3)pLysS, purified (Ni-NTA, TEV digestion, second Ni-NTA); not shown: His tag (inferred from Ni-NTA purification; vector pMCSG48), N-terminal, cleaved
B2: mutated BMV capsid protein (L123D and F183T) (natural protein, brome mosaic virus)
chain: B1 chain with L123D, F183T
notes: brome mosaic virus capsid (coat) protein with two designed mutations; also called rCP mutant; mutated rCP; source: E. coli Rosetta 2(DE3)pLysS, purified as the wild-type BMV CP (Ni-NTA, TEV digestion, second Ni-NTA); not shown: His tag (inferred from Ni-NTA purification; vector pMCSG48), N-terminal, cleaved

Tests used:
[1] = biological target: the molecule itself; experiment: MST; labelled rCP (RED-NHS 647, 50 nM) titrated with unlabelled rCP (from 15 uM); 50 mM Tris pH 7.5, 5 mM MgCl2, 600 mM NaCl; step of self-association not stated
[2] = biological target: the molecule itself; experiment: MST; labelled rCP (RED-NHS 647, 50 nM) titrated with unlabelled rCP (from 15 uM); 50 mM Tris pH 8.5, 5 mM MgCl2, 150 mM NaCl; step of self-association not stated
[3] = biological target: the molecule itself; experiment: MST; labelled rCP (RED-NHS 647, 50 nM) titrated with unlabelled rCP (from 15 uM); 50 mM Tris pH 7.5, 5 mM MgCl2, 300 mM NaCl; step of self-association not stated
[4] = biological target: the molecule itself; experiment: MST; labelled rCP (RED-NHS 647, 50 nM) titrated with unlabelled rCP (from 15 uM); 50 mM Tris pH 7.5, 5 mM MgCl2, 150 mM NaCl; step of self-association not stated
[5] = biological target: the molecule itself; experiment: MST; labelled rCP (RED-NHS 647, 50 nM) titrated with unlabelled rCP (from 15 uM); 50 mM Tris pH 6.8, 5 mM MgCl2, 150 mM NaCl; step of self-association not stated
[6] = biological target: the molecule itself; experiment: MST; labelled rCP (RED-NHS 647, 50 nM) titrated with unlabelled rCP (from 15 uM); 50 mM Tris pH 7.5, 5 mM MgCl2, 1000 mM NaCl; step of self-association not stated
[7] = biological target: the molecule itself; experiment: cross-linking; 5 mM DSS, rCP in MST buffer pH 7.5; 5, 10, 15 and 30 min; SDS-PAGE
[8] = biological target: the molecule itself; experiment: cryo-TEM imaging; empty VLPs assembled without cargo by two-step dialysis; vitrified samples, 120 kV

| Protein | Kd [1] [nM] | Kd [2] [nM] | Kd [3] [nM] | Kd [4] [nM] | Kd [5] [nM] | Kd [6] [nM] | stoichiometry N [7] | binding result [8] |
| --- | --- | --- | --- | --- | --- | --- | --- | --- |
| B1 | 72 | 175 | 62 | 35 | 6.8 | 111 | 2 |  |
| B2 |  |  |  |  |  |  |  | binds |
